The results in this text go back to US20120135923A1 (IPSEN PHARMA S A S, published 2012).

The target of experiment [1] is T1, hMC1-R (human, UniProt Q01726 1-317).
T1 construct: whole, on cells; Assayed as membranes of CHO-K1 cells expressing the receptor; also called hMC-R receptor subtype 1; melanocyte-specific receptor (MC1-R)
In words: ratio Ki hMC1-R / Ki hMC4-R, same assay. The procedure:
(§1) Cellular membranes used for the in vitro receptor binding assays were obtained from transgenic CHO-K1 cells stably expressing hMC-R receptor subtypes 1, 3, 4 or 5. […] The pellets were resuspended in the same buffer and centrifuged at 50,000 g for 10 minutes at approximately 4° C. The washed pellets containing the cellular membranes were stored at approximately −80° C.
(§2) Competitive inhibition of [¹²⁵I](Tyr²)-(Nle⁴-D-Phe⁷)α-MSH ([¹²⁵I]-NDP-α-MSH, Amersham Biosciences®) binding was carried out in polypropylene 96 well plates. Cell membranes (1-10 μg protein/well) prepared as described above were incubated in 50 mM Tris-HCl at pH 7.4 containing 0.2% bovine serum albumin (BSA), 5 mM MgCl₂, 1 mM CaCl₂ and 0.1 mg/mL bacitracin, with increasing concentrations of the test compound and 0.1-0.3 nM […] for approximately 90-120 minutes at approximately 37° C. Bound [¹²⁵I]-NDP-α-MSH ligand was separated from free [¹²⁵I]-NDP-α-MSH by filtration through GF/C glass fiber filter plates (Unifilter®; Packard) presoaked with 0.1% (w/v) polyethylenimine (PEI), using a Packard Filtermate® harvester. Filters were washed three times with 50 mM Tris-HCl at pH 7.4 at a temperature of approximately 0-4° C. and then assayed for radioactivity using a Packard Topcount® scintillation counter. Binding data were analyzed by computer-assisted non-linear regression analysis (XL fit; IDBS).

The target of experiment [2] is T1, hMC1-R. Kind of experiment: competition with [125I]-NDP-α-MSH, CHO-K1 membranes. The procedure: as §1, §2
Another experiment concerns the target T2, hMC3-R (human, UniProt P41968 1-323).
T2 construct: whole, on cells; Assayed as membranes of CHO-K1 cells expressing the receptor; also called hMC-R receptor subtype 3; melacortin-3 (MC3-R)
The experiment is described as above. The procedure: as §1, §2

For the next experiment, the target named is T3, hMC4-R (human, UniProt P32245 1-332).
T3 construct: whole, on cells; Assayed as membranes of CHO-K1 cells expressing the receptor; also called hMC-R receptor subtype 4; melanocortin-4 (MC4-R)
The description is as above. The method, then:
as §1, §2

In the next experiment the target is T4, hMC5-R (human, UniProt P33032 1-325).
T4 construct: whole, on cells; Assayed as membranes of CHO-K1 cells expressing the receptor; also called hMC-R receptor subtype 5; melanocortin-5 receptor (MC5-R)
The experiment is described as above. The method, then:
as §1, §2

Experiment [3] has as its target T5, human melanocortin receptor subtype 1 (hMC1-R) (human, UniProt Q01726 1-317).
T5 construct: whole, on cells; membranes of CHO-K1 cells
In words: [125I]-NDP-α-MSH competition, membranes.

Experiment [4] addresses T6, human melanocortin receptor subtype 3 (hMC3-R) (human, UniProt P41968 1-323).
T6 construct: whole, on cells; membranes of CHO-K1 cells
In words: [125I]-NDP-α-MSH competition, membranes.

The target in experiment [5] is T7, human melanocortin receptor subtype 4 (hMC4-R) (human, UniProt P32245 1-332).
T7 construct: whole, on cells; membranes of CHO-K1 cells
In words: [125I]-NDP-α-MSH competition, membranes.

Experiment [6] concerns the target T8, human melanocortin receptor subtype 5 (hMC5-R) (human, UniProt P33032 1-325).
T8 construct: whole, on cells; membranes of CHO-K1 cells
Kind of experiment: [125I]-NDP-α-MSH competition, membranes.

Bridge positions count the residues as written; N and C are the ends. Square brackets hold non-standard residues; d marks the D form. Ends that are not written are not given here. 1Nal = N[C@@H](Cc1cccc2ccccc12)C(=O)O; d2Nal = N[C@H](Cc1ccc2ccccc2c1)C(=O)O; Bta = N[C@@H](Cc1csc2ccccc12)C(=O)O; Aic = NC1(C(=O)O)Cc2ccccc2C1; Pen = CC(C)(S)[C@H](N)C(=O)O; Ac6c = NC1(C(=O)O)CCCCC1; Nle = CCCC[C@H](N)C(=O)O; Ac3c = NC1(C(=O)O)CC1; Aib = CC(C)(N)C(=O)O; GABA = NCCCC(=O)O; βAla = NCCC(=O)O

T8 sequence (P33032 whole entry): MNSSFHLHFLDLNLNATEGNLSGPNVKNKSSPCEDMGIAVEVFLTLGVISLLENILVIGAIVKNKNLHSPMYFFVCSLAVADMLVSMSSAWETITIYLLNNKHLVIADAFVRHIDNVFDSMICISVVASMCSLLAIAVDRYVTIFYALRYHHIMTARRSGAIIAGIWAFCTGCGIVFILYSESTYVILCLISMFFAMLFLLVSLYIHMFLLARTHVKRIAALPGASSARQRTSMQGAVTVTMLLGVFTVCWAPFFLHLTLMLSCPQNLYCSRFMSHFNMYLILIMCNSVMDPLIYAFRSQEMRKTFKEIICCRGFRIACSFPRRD
T4 sequence (P33032 whole entry): as above
T5 sequence (Q01726 whole entry): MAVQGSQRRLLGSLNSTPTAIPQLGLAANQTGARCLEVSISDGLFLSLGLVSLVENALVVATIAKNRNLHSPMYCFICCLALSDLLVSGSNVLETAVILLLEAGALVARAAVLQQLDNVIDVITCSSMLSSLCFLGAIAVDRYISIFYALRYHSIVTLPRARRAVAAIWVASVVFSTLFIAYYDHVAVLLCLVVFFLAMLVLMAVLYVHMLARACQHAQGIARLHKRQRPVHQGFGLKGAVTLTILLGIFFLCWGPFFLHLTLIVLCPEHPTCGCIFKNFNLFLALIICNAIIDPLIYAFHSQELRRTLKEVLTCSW
T1 sequence (Q01726 whole entry): as above
T2 sequence (P41968 whole entry): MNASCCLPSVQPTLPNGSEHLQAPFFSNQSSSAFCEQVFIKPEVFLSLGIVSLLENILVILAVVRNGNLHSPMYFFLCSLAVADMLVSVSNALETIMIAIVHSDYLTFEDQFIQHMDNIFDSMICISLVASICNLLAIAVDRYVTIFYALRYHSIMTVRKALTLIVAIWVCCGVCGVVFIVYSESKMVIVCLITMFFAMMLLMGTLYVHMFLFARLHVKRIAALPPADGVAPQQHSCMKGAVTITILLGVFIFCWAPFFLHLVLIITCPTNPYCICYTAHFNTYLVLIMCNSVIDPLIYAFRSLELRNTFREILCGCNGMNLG
T6 sequence (P41968 whole entry): as above
T7 sequence (P32245 whole entry): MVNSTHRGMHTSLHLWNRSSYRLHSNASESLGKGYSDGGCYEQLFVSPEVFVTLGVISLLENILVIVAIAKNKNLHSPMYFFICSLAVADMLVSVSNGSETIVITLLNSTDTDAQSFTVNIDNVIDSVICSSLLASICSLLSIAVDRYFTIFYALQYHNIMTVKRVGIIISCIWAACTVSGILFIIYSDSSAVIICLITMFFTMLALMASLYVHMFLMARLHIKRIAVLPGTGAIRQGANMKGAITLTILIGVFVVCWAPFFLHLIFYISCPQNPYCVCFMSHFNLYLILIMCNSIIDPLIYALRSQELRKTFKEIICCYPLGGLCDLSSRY
T3 sequence (P32245 whole entry): as above

B1: Ac-D-Arg-c(Cys-His-D-Phe-Arg-Trp-Gaba-Pen)-NH2 (peptide)
peptide: Ac-[dR]CH[dF]RW[GABA][Pen]-NH2
modifications: disulfide 2-8
SMILES: CC(=O)N[C@H](CCCNC(=N)N)C(=O)N[C@H]1CSSC(C)(C)[C@@H](C(N)=O)NC(=O)CCCNC(=O)[C@H](Cc2c[nH]c3ccccc23)NC(=O)[C@H](CCCNC(=N)N)NC(=O)[C@@H](Cc2ccccc2)NC(=O)[C@H](Cc2c[nH]cn2)NC1=O
What is called Ki is the dissociation constant of the complex between target and ligand, obtained from inhibition or displacement. Take B1: the “Ki hMC1-R/MC4-R” value with hMC1-R [1] was found to be 0.36. Besides, the inhibition constant (Ki) with hMC1-R [2] came to 3.93 nM; with hMC3-R, 172 nM; in the experiment with hMC4-R, 11 nM; with hMC5-R, 538 nM.

B2: Phe-c(Cys-His-D-Phe-Arg-Trp-Gaba-Cys)-NH2 (peptide)
peptide: FCH[dF]RW[GABA]C-NH2
modifications: disulfide 2-8; N-terminus assumed
SMILES: N=C(N)NCCC[C@@H]1NC(=O)[C@@H](Cc2ccccc2)NC(=O)[C@H](Cc2c[nH]cn2)NC(=O)[C@@H](NC(=O)[C@@H](N)Cc2ccccc2)CSSC[C@@H](C(N)=O)NC(=O)CCCNC(=O)[C@H](Cc2c[nH]c3ccccc23)NC1=O
Turning to B2, the “Ki hMC1-R/MC4-R” value with hMC1-R [1] was 0.04. In addition, the Ki with hMC1-R [2] was 0.186 nM; in the experiment with hMC4-R it was 4.93 nM; with hMC5-R it was 0.537 nM.

B3: c[Hydantoin(C(O)-(Asp-A6c))-D-2-Nal-Arg-Trp-Lys]-NH2 (peptide)
peptide: D[Ac6c][d2Nal]RWK-NH2
modifications: lactam 1-6; also: hydantoin ring: N-terminal N of Asp1 and backbone N of residue 2 bridged by one C(O), bridge at N via C(O), other end not in the chain
On to B3, for which the Ki in experiment [3] came out at 2170 nM; in experiment [4], 1480 nM; in experiment [5], 16.5 nM; in [6] it was 451 nM.

Turning to Ac-[Nle]C[dA]H[dF]RWAC-NH2 (disulfide 2-9) [Ac-Nle-c(Cys-D-Ala-His-D-Phe-Arg-Trp-Ala-Cys)-NH2], the “Ki hMC1-R/MC4-R” value with hMC1-R [1] is 0.41. Also, the Ki in the experiment with hMC1-R [2] is 9.12 nM; with hMC3-R, 1130 nM; with hMC4-R, 22.1 nM; with hMC5-R it was 2860 nM.

B4: Ac-Nle-c(Cys-D-Ala-His-D-Phe-Arg-Trp-Cys)-(Doc)2-Tyr-Gly-Arg-Lys-Lys-Arg-Arg-Gln-Arg-Arg-Arg-NH2 (peptide)
peptide: XCAHFRWCXXYGRKKRRQRRR
modifications: N-terminal Ac; Nle at 1; D-Ala at 3; D-Phe at 5; Doc at 9 and 10; disulfide Cys2-Cys8; C-terminal NH2
Consider B4, for which the Ki in experiment [3] was determined as 0.211 nM; in [4] it was 0.665 nM; in [5], 0.635 nM; in [6], 118 nM.

B5: Ac-c(Cys-Glu-His-D-2-Nal-Arg-Bal-Ala-Cys)-Pro-Pro-Lys-Asp-β-Ala-Tyr-Gly-Arg-Lys-Lys-Arg-Arg-Gln-Arg-Arg-Arg-NH2 (peptide)
peptide: CEHXRXACPPKDXYGRKKRRQRRR
modifications: N-terminal Ac; D-2-Nal at 4; Bal at 6; β-Ala at 13; disulfide Cys1-Cys8; C-terminal NH2
Take B5: the Ki in [3] is 6.46 nM; in experiment [4], 5.22 nM; in experiment [5], 0.38 nM; in [6], 15.3 nM.

B6: Ac-c(Cys-Glu-His-D-2-Nal-Arg-1-Nal-Ala-Cys)-Pro-Pro-Lys-Asp-β-Ala-Tyr-Gly-Arg-Lys-Lys-Arg-Arg-Gln-Arg-Arg-Arg-NH2 (peptide)
peptide: CEHXRXACPPKDXYGRKKRRQRRR
modifications: N-terminal Ac; D-2-Nal at 4; 1-Nal at 6; β-Ala at 13; disulfide Cys1-Cys8; C-terminal NH2
On to B6, for which the Ki in experiment [3] is 4.59 nM; in [4], 6.28 nM; in experiment [5], 0.588 nM; in [6], 22.6 nM.

For the molecule GCEH[dF]RWC-NH2 (disulfide 2-8; also: hydantoin ring from C(O) with Gly1-Cys2) [c[Hydantoin(C(O)-(Gly-Cys))-Glu-His-D-Phe-Arg-Trp-Cys]-NH2], the Ki amounted to 15.6 nM in experiment [3], 305 nM in [4], 8.92 nM in [5] and 3070 nM in experiment [6].

B7: c[Hydantoin(C(O)-(Asp-Aic))-D-2-Nal-Arg-Trp-Lys]-NH2 (peptide)
peptide: D[Aic][d2Nal]RWK-NH2
modifications: lactam 1-6; also: hydantoin ring: N-terminal N of Asp1 and backbone N of residue 2 bridged by one C(O), bridge at N via C(O), other end not in the chain
For B7, the Ki came out at 9030 nM in experiment [3], 2630 nM in experiment [4], 35.8 nM in experiment [5] and 1160 nM in experiment [6].

B8: Ac-Nle-c(Cys-His-D-Phe-Arg-D-Trp-β-Ala-Cys)-NH2 (peptide)
peptide: Ac-[Nle]CH[dF]R[dW][βAla]C-NH2
modifications: disulfide 2-8
SMILES: CCCC[C@H](NC(C)=O)C(=O)N[C@H]1CSSC[C@@H](C(N)=O)NC(=O)CCNC(=O)[C@@H](Cc2c[nH]c3ccccc23)NC(=O)[C@H](CCCNC(=N)N)NC(=O)[C@@H](Cc2ccccc2)NC(=O)[C@H](Cc2c[nH]cn2)NC1=O
For the molecule B8, the “Ki hMC1-R/MC4-R” value in the experiment with hMC1-R [1] is 0.16. The Ki with hMC1-R [2] amounted to 0.323 nM; in the experiment with hMC3-R, 14.1 nM; in the experiment with hMC4-R, 1.96 nM; with hMC5-R, 24 nM.

As for Ac-FCH[dF]RW[GABA]C-NH2 (disulfide 2-8) [Ac-Phe-c(Cys-His-D-Phe-Arg-Trp-Gaba-Cys)-NH2], the “Ki hMC1-R/MC4-R” value with hMC1-R [1] was 0.12.

Take Ac-CEH[d2Nal]R[1Nal]ACPPKD[βAla]RRRRRQRRR-NH2 (disulfide 1-8) [Ac-c(Cys-Glu-His-D-2-Nal-Arg-1-Nal-Ala-Cys)-Pro-Pro-Lys-Asp-β-[…]NH2]: the Ki came out at 2.42 nM in experiment [3], 6.56 nM in [4], 0.238 nM in experiment [5] and 41.7 nM in [6].

B9: Ac-c(Cys-Glu-His-D-2-Nal-Arg-Bal-Ala-Cys)-Pro-Pro-Lys-Asp-β-Ala-Tyr-Aib-Arg-Lys-Lys-Arg-Arg-Gln-Arg-Arg-Arg-NH2 (peptide)
peptide: Ac-CEH[d2Nal]R[Bta]ACPPKD[βAla]Y[Aib]RKKRRQRRR-NH2
modifications: disulfide 1-8
SMILES: CC(=O)N[C@H]1CSSC[C@@H](C(=O)N2CCC[C@H]2C(=O)N2CCC[C@H]2C(=O)N[C@@H](CCCCN)C(=O)N[C@@H](CC(=O)O)C(=O)NCCC(=O)N[C@@H](Cc2ccc(O)cc2)C(=O)NC(C)(C)C(=O)N[C@@H](CCCNC(=N)N)C(=O)N[C@@H](CCCCN)C(=O)N[C@@H](CCCCN)C(=O)N[C@@H](CCCNC(=N)N)C(=O)N[C@@H](CCCNC(=N)N)C(=O)N[C@@H](CCC(N)=O)C(=O)N[C@@H](CCCNC(=N)N)C(=O)N[C@@H](CCCNC(=N)N)C(=O)N[C@@H](CCCNC(=N)N)C(N)=O)NC(=O)[C@H](C)NC(=O)[C@H](Cc2csc3ccccc23)NC(=O)[C@H](CCCNC(=N)N)NC(=O)[C@@H](Cc2ccc3ccccc3c2)NC(=O)[C@H](Cc2c[nH]cn2)NC(=O)[C@H](CCC(=O)O)NC1=O
As for B9, the Ki in experiment [3] was 7.84 nM; in experiment [4], 10.2 nM; in [5], 0.783 nM; in experiment [6], 91.8 nM.

B10: c[Hydantoin(C(O)-(Asp-A3c))-D-2-Nal-Arg-Trp-Lys]-NH2 (peptide)
peptide: D[Ac3c][d2Nal]RWK-NH2
modifications: lactam 1-6; also: hydantoin ring: N-terminal N of Asp1 and backbone N of residue 2 bridged by one C(O), bridge at N via C(O), other end not in the chain
Turning to B10, the Ki in experiment [3] turned out to be 7570 nM; in experiment [4], 1920 nM; in experiment [5] it was 420 nM; in experiment [6], 2880 nM.

Regarding Ac-C[dA]H[dF]RWAC-NH2 (disulfide 1-8) [Ac-c(Cys-D-Ala-His-D-Phe-Arg-Trp-Ala-Cys)-NH2], the “Ki hMC1-R/MC4-R” value with hMC1-R [1] worked out at 2.06. For the same molecule, the values for the Ki with hMC1-R [2], in the experiment with hMC3-R and with hMC4-R were 199 nM, 5990 nM and 96.7 nM, respectively.

B11: Ac-Nle-c(Asp-D-Ala-His-D-Phe-Arg-Trp-Lys)-NH2 (peptide)
peptide: Ac-[Nle]D[dA]H[dF]RWK-NH2
modifications: lactam 2-8
SMILES: CCCC[C@H](NC(C)=O)C(=O)N[C@H]1CC(=O)NCCCC[C@@H](C(N)=O)NC(=O)[C@H](Cc2c[nH]c3ccccc23)NC(=O)[C@H](CCCNC(=N)N)NC(=O)[C@@H](Cc2ccccc2)NC(=O)[C@H](Cc2c[nH]cn2)NC(=O)[C@@H](C)NC1=O
Regarding B11, the “Ki hMC1-R/MC4-R” value in the experiment with hMC1-R [1] was 0.26. The Ki was found to be 0.659 nM in the experiment with hMC1-R [2], 98.9 nM with hMC3-R, 2.55 nM with hMC4-R and 4.19 nM with hMC5-R.
